From patent US20160243213A9

Tests used:
[1] = target: HPV-16 E7 wild type (E7WT) expressed by RMA-E7 transfectants (HPV-16) (UniProt P03129)
[2] = target: HPV-16 E7 wild type (E7WT) expressed by RMA-E7 transfectants (HPV-16) (UniProt P03129); remark: listed apart in the source

Substance	51Cr-release assay (after 1st in vitro restimulation), specific lysis [1]	51Cr-release assay (after 1st in vitro restimulation), Specific Lysis (%) [2]
in vitro restimulated spleen cells of C57BL/6 mice inoculated with the DNA vaccine pTHamp-E7SH (cells without a defined receptor)	26%	
in vitro restimulated spleen cells of C57BL/6 mice inoculated with RPBLAs containing RX3-Gfp (cells without a defined receptor)	12%	
in vitro restimulated spleen cells of C57BL/6 mice inoculated with the empty plasmid pTHamp (cells without a defined receptor)		8%
in vitro restimulated spleen cells of C57BL/6 mice inoculated with RPBLAs containing RX3-E7SH (cells without a defined receptor)		33%
in vitro restimulated spleen cells of C57BL/6 mice inoculated with RPBLAs containing RX3-E7SH and incomplete Freund's adjuvant (cells without a defined receptor)		29%
